For this test, the target named is apoa1_human APOA1 (UniProt P02647).
Chain of apoa1_human APOA1 (P02647 whole entry): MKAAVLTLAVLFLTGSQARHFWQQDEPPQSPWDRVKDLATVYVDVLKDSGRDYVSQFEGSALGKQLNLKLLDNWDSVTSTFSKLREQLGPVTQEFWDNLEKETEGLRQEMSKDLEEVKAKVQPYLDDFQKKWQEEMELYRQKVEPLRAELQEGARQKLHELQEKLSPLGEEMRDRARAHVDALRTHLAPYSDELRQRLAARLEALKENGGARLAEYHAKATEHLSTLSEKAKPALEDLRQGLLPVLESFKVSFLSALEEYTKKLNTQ
“Phospholipid-transporting ATPase ABCA1 (Homo sapiens), O95477 W590S”: the “effect of a mutation on the interaction” value is “increasing interaction strength”. “Phospholipid-transporting ATPase ABCA1 (Homo sapiens), O95477 S1506L”: the “effect of a mutation on the interaction” value is on record as “disrupting interaction strength”.

For the substance “Phospholipid-transporting ATPase ABCA1 (Homo sapiens), O95477 C1477R”, the “effect of a mutation on the interaction” value is listed as “disrupting interaction strength”. Then “Phospholipid-transporting ATPase ABCA1 (Homo sapiens), O95477 Q597R”, with “disrupting interaction strength”; and “Phospholipid-transporting ATPase ABCA1 (Homo sapiens), O95477 R587W”, with “disrupting interaction strength”.
